Data as given in article PMC314469, “Protein Interaction Networks by Proteome Peptide Scanning” (PLoS Biology, 2004).

Assays:
Assay in all cases: SPOT array
[1] = molecular target: T1, Boi1 SH3 (BOI1_YEAST), P38041
T1 chain: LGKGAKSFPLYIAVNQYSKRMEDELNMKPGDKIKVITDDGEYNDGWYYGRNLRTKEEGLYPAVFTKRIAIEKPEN

[2] = molecular target: T2, Boi2 SH3 (BOI2_YEAST), P39969
T2 chain: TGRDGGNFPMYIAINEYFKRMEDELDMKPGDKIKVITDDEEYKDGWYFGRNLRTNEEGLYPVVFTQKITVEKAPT

[3] = molecular target: T3, Rvs167 SH3 (RV167_YEAST), P39743
T3 chain: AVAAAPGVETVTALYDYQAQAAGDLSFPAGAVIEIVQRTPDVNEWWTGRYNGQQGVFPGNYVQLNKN

[4] = molecular target: T4, Yfr024 SH3 (LSB3_YEAST), P43603
T4 chain: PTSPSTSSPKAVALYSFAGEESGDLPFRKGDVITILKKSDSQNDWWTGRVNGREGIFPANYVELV

[5] = molecular target: T5, Yhr016c SH3 (YSC84_YEAST), P32793
T5 chain: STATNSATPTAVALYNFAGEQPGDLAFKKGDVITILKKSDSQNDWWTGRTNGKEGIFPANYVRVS

B1: YBR216C 239-252 (peptide)
chain: NYIPPDPPKDIQLN
[1]
  normalised SPOT signal, Boehringer light units (BLU); mean over the file's lines of this peptide: 182
[2]
  normalised SPOT signal, Boehringer light units (BLU); mean over the file's lines of this peptide: 40.9
[3]
  normalised SPOT signal, Boehringer light units (BLU); mean over the file's lines of this peptide: 176
[4]
  normalised SPOT signal, Boehringer light units (BLU); mean over the file's lines of this peptide: 254
[5]
  normalised SPOT signal, Boehringer light units (BLU); mean over the file's lines of this peptide: 79.4

B2: YLR213C 97-110 (peptide)
chain: NYQPKPPIREGNGP
[1]
  normalised SPOT signal, Boehringer light units (BLU); mean over the file's lines of this peptide: 43.5
[2]
  normalised SPOT signal, Boehringer light units (BLU); mean over the file's lines of this peptide: 53.8
[3]
  normalised SPOT signal, Boehringer light units (BLU); mean over the file's lines of this peptide: 79.4
[4]
  normalised SPOT signal, Boehringer light units (BLU); mean over the file's lines of this peptide: 114
[5]
  normalised SPOT signal, Boehringer light units (BLU); mean over the file's lines of this peptide: 156

B3: YLR457C 288-301 (peptide)
chain: PASPTPPYRSRETE
[1]
  normalised SPOT signal, Boehringer light units (BLU); mean over the file's lines of this peptide: 51.2
[2]
  normalised SPOT signal, Boehringer light units (BLU); mean over the file's lines of this peptide: 31
[3]
  normalised SPOT signal, Boehringer light units (BLU); mean over the file's lines of this peptide: 13.1
[4]
  normalised SPOT signal, Boehringer light units (BLU); mean over the file's lines of this peptide: 933
[5]
  normalised SPOT signal, Boehringer light units (BLU); mean over the file's lines of this peptide: 729

B4: YMR058W 448-461 (peptide)
chain: PAFPEYPMRRDTLY
[1]
  normalised SPOT signal, Boehringer light units (BLU); mean over the file's lines of this peptide: 3190
[2]
  normalised SPOT signal, Boehringer light units (BLU); mean over the file's lines of this peptide: 82.5
[3]
  normalised SPOT signal, Boehringer light units (BLU); mean over the file's lines of this peptide: 57.6
[4]
  normalised SPOT signal, Boehringer light units (BLU); mean over the file's lines of this peptide: 5040
[5]
  normalised SPOT signal, Boehringer light units (BLU); mean over the file's lines of this peptide: 1930

B5: YBR036C 302-315 (peptide)
chain: PFIPKFPSRESVES
[1]
  normalised SPOT signal, Boehringer light units (BLU); mean over the file's lines of this peptide: 39.7
[2]
  normalised SPOT signal, Boehringer light units (BLU); mean over the file's lines of this peptide: 70.4
[3]
  normalised SPOT signal, Boehringer light units (BLU); mean over the file's lines of this peptide: 506
[4]
  normalised SPOT signal, Boehringer light units (BLU); mean over the file's lines of this peptide: 2600
[5]
  normalised SPOT signal, Boehringer light units (BLU); mean over the file's lines of this peptide: 1410

B6: YLR164W 27-40 (peptide)
chain: PFLPKIPQKPGGVS
[1]
  normalised SPOT signal, Boehringer light units (BLU); mean over the file's lines of this peptide: 80.5
[2]
  normalised SPOT signal, Boehringer light units (BLU); mean over the file's lines of this peptide: 45.9
[3]
  normalised SPOT signal, Boehringer light units (BLU); mean over the file's lines of this peptide: 50.1
[4]
  normalised SPOT signal, Boehringer light units (BLU); mean over the file's lines of this peptide: 2200
[5]
  normalised SPOT signal, Boehringer light units (BLU); mean over the file's lines of this peptide: 173

B7: YDR178W 35-48 (peptide)
chain: PFLPVLPQKPGGVR
[1]
  normalised SPOT signal, Boehringer light units (BLU); mean over the file's lines of this peptide: 49.9
[2]
  normalised SPOT signal, Boehringer light units (BLU); mean over the file's lines of this peptide: 35.7
[3]
  normalised SPOT signal, Boehringer light units (BLU); mean over the file's lines of this peptide: 20
[4]
  normalised SPOT signal, Boehringer light units (BLU); mean over the file's lines of this peptide: 12700
[5]
  normalised SPOT signal, Boehringer light units (BLU); mean over the file's lines of this peptide: 338

B8: YGL060W 537-550 (peptide)
chain: PIMPTLPPRPYITI
[1]
  normalised SPOT signal, Boehringer light units (BLU); mean over the file's lines of this peptide: 31.6
[2]
  normalised SPOT signal, Boehringer light units (BLU); mean over the file's lines of this peptide: 87.6
[3]
  normalised SPOT signal, Boehringer light units (BLU); mean over the file's lines of this peptide: 5510
[4]
  normalised SPOT signal, Boehringer light units (BLU); mean over the file's lines of this peptide: 26100
[5]
  normalised SPOT signal, Boehringer light units (BLU); mean over the file's lines of this peptide: 24900

B9: YNL085W 152-165 (peptide)
chain: PIQPQEPFRHNTTI
[1]
  normalised SPOT signal, Boehringer light units (BLU); mean over the file's lines of this peptide: 104
[2]
  normalised SPOT signal, Boehringer light units (BLU); mean over the file's lines of this peptide: 7.9
[3]
  normalised SPOT signal, Boehringer light units (BLU); mean over the file's lines of this peptide: 20.4
[4]
  normalised SPOT signal, Boehringer light units (BLU); mean over the file's lines of this peptide: 60.6
[5]
  normalised SPOT signal, Boehringer light units (BLU); mean over the file's lines of this peptide: 52.8

B10: YPL255W 118-131 (peptide)
chain: PIVPREPLRNEPTD
[1]
  normalised SPOT signal, Boehringer light units (BLU); mean over the file's lines of this peptide: 628
[2]
  normalised SPOT signal, Boehringer light units (BLU); mean over the file's lines of this peptide: 33300
[3]
  normalised SPOT signal, Boehringer light units (BLU); mean over the file's lines of this peptide: 34500
[4]
  normalised SPOT signal, Boehringer light units (BLU); mean over the file's lines of this peptide: 7410
[5]
  normalised SPOT signal, Boehringer light units (BLU); mean over the file's lines of this peptide: 5170

B11: YBR271W 27-40 (peptide)
chain: PKDPSSPQRDEILT
[1]
  normalised SPOT signal, Boehringer light units (BLU); mean over the file's lines of this peptide: 138
[2]
  normalised SPOT signal, Boehringer light units (BLU); mean over the file's lines of this peptide: 156
[3]
  normalised SPOT signal, Boehringer light units (BLU); mean over the file's lines of this peptide: 53.2
[4]
  normalised SPOT signal, Boehringer light units (BLU); mean over the file's lines of this peptide: 6.2
[5]
  normalised SPOT signal, Boehringer light units (BLU); mean over the file's lines of this peptide: 0

B12: YPL212C 67-80 (peptide)
chain: PKEPRLPKRKVAVM
[1]
  normalised SPOT signal, Boehringer light units (BLU); mean over the file's lines of this peptide: 227
[2]
  normalised SPOT signal, Boehringer light units (BLU); mean over the file's lines of this peptide: 28.3
[3]
  normalised SPOT signal, Boehringer light units (BLU); mean over the file's lines of this peptide: 5510
[4]
  normalised SPOT signal, Boehringer light units (BLU); mean over the file's lines of this peptide: 38000
[5]
  normalised SPOT signal, Boehringer light units (BLU); mean over the file's lines of this peptide: 39200

B13: YEL023C 311-324 (peptide)
chain: PLIPDNPGRLLSSK
[1]
  normalised SPOT signal, Boehringer light units (BLU); mean over the file's lines of this peptide: 94.5
[2]
  normalised SPOT signal, Boehringer light units (BLU); mean over the file's lines of this peptide: 48.5
[3]
  normalised SPOT signal, Boehringer light units (BLU); mean over the file's lines of this peptide: 42.7
[4]
  normalised SPOT signal, Boehringer light units (BLU); mean over the file's lines of this peptide: 200
[5]
  normalised SPOT signal, Boehringer light units (BLU); mean over the file's lines of this peptide: 205

B14: YHL007C 535-548 (peptide)
chain: PLPPIPPTKSKTSP
[1]
  normalised SPOT signal, Boehringer light units (BLU); mean over the file's lines of this peptide: 80.6
[2]
  normalised SPOT signal, Boehringer light units (BLU); mean over the file's lines of this peptide: 21
[3]
  normalised SPOT signal, Boehringer light units (BLU); mean over the file's lines of this peptide: 30.2
[4]
  normalised SPOT signal, Boehringer light units (BLU); mean over the file's lines of this peptide: 504
[5]
  normalised SPOT signal, Boehringer light units (BLU); mean over the file's lines of this peptide: 140

B15: YGR084C 87-100 (peptide)
chain: PLQPRPPVKPLSKQ
[1]
  normalised SPOT signal, Boehringer light units (BLU); mean over the file's lines of this peptide: 91.7
[2]
  normalised SPOT signal, Boehringer light units (BLU); mean over the file's lines of this peptide: 34.5
[3]
  normalised SPOT signal, Boehringer light units (BLU); mean over the file's lines of this peptide: 57.3
[4]
  normalised SPOT signal, Boehringer light units (BLU); mean over the file's lines of this peptide: 861
[5]
  normalised SPOT signal, Boehringer light units (BLU); mean over the file's lines of this peptide: 128

B16: YJL005W 495-508 (peptide)
chain: PMSPGPPSKKDSRH
[1]
  normalised SPOT signal, Boehringer light units (BLU); mean over the file's lines of this peptide: 127
[2]
  normalised SPOT signal, Boehringer light units (BLU); mean over the file's lines of this peptide: 147
[3]
  normalised SPOT signal, Boehringer light units (BLU); mean over the file's lines of this peptide: 138
[4]
  normalised SPOT signal, Boehringer light units (BLU); mean over the file's lines of this peptide: 996
[5]
  normalised SPOT signal, Boehringer light units (BLU); mean over the file's lines of this peptide: 178

B17: YBL067C 285-298 (peptide)
chain: PNEPGAPSRLSFEN
[1]
  normalised SPOT signal, Boehringer light units (BLU); mean over the file's lines of this peptide: 104
[2]
  normalised SPOT signal, Boehringer light units (BLU); mean over the file's lines of this peptide: 71.5
[3]
  normalised SPOT signal, Boehringer light units (BLU); mean over the file's lines of this peptide: 52.4
[4]
  normalised SPOT signal, Boehringer light units (BLU); mean over the file's lines of this peptide: 34.7
[5]
  normalised SPOT signal, Boehringer light units (BLU); mean over the file's lines of this peptide: 258

B18: YER164W 1337-1350 (peptide)
chain: PNSPTPPLKSKVSR
[1]
  normalised SPOT signal, Boehringer light units (BLU); mean over the file's lines of this peptide: 170
[2]
  normalised SPOT signal, Boehringer light units (BLU); mean over the file's lines of this peptide: 40.1
[3]
  normalised SPOT signal, Boehringer light units (BLU); mean over the file's lines of this peptide: 25
[4]
  normalised SPOT signal, Boehringer light units (BLU); mean over the file's lines of this peptide: 866
[5]
  normalised SPOT signal, Boehringer light units (BLU); mean over the file's lines of this peptide: 164

B19: YGL087C 66-79 (peptide)
chain: PNYPDSPPKVTFIS
[1]
  normalised SPOT signal, Boehringer light units (BLU); mean over the file's lines of this peptide: 68.6
[2]
  normalised SPOT signal, Boehringer light units (BLU); mean over the file's lines of this peptide: 76.3
[3]
  normalised SPOT signal, Boehringer light units (BLU); mean over the file's lines of this peptide: 12.5
[4]
  normalised SPOT signal, Boehringer light units (BLU); mean over the file's lines of this peptide: 87.1
[5]
  normalised SPOT signal, Boehringer light units (BLU); mean over the file's lines of this peptide: 260

B20: YBR060C 169-182 (peptide)
chain: PPEPATPSKKSLTT
[1]
  normalised SPOT signal, Boehringer light units (BLU); mean over the file's lines of this peptide: 46.1
[2]
  normalised SPOT signal, Boehringer light units (BLU); mean over the file's lines of this peptide: 26.2
[3]
  normalised SPOT signal, Boehringer light units (BLU); mean over the file's lines of this peptide: 23.8
[4]
  normalised SPOT signal, Boehringer light units (BLU); mean over the file's lines of this peptide: 41.3
[5]
  normalised SPOT signal, Boehringer light units (BLU); mean over the file's lines of this peptide: 66.6

B21: YNL152W 329-342 (peptide)
chain: PPLPPIPTRDDMSN
[1]
  normalised SPOT signal, Boehringer light units (BLU); mean over the file's lines of this peptide: 72.7
[2]
  normalised SPOT signal, Boehringer light units (BLU); mean over the file's lines of this peptide: 37.5
[3]
  normalised SPOT signal, Boehringer light units (BLU); mean over the file's lines of this peptide: 124
[4]
  normalised SPOT signal, Boehringer light units (BLU); mean over the file's lines of this peptide: 2050
[5]
  normalised SPOT signal, Boehringer light units (BLU); mean over the file's lines of this peptide: 545

B22: YMR089C 156-169 (peptide)
chain: PPPPPPPPKPPLND
[1]
  normalised SPOT signal, Boehringer light units (BLU); mean over the file's lines of this peptide: 60
[2]
  normalised SPOT signal, Boehringer light units (BLU); mean over the file's lines of this peptide: 58
[3]
  normalised SPOT signal, Boehringer light units (BLU); mean over the file's lines of this peptide: 36.6
[4]
  normalised SPOT signal, Boehringer light units (BLU); mean over the file's lines of this peptide: 1030
[5]
  normalised SPOT signal, Boehringer light units (BLU); mean over the file's lines of this peptide: 100
